Each block holds one molecule with its values, some of them ahead of it.
B2: HUB1 (Histone Monoubiquitination 1), At2g44950, Arabidopsis thaliana (enzyme)
chain: MASTGEPDRKRRHFSSISPSEAAAAVKKQPFFWPSSEDKLDTAVLQFQNLKLSQKLEAQQVECSILEDKLSQIKEKQLPYNSSLKTVHKSWEKLTASVESCSVRVSDSSSGAHRFVNKEDGSSPAVKNDFINRLLETGATESSSSNICSNQMEENGVNTSSQMTQTLYNLVAATEDLRCLKDELYPTVLRTNLGKDLCGQLALSELESEIKSFRGDLDDVLVKFKSLSRELQSHRDADAKVRVDLKRIRGELEDEVVELQQCNGDLSALRAERDATAGAFFPVLSLGNKLATSDRERDKQRDLQDMETVLKELTVLASGRLQQLKNLHEERTKMLGKMSNLQNKSKSVRCISSSQACLSLKDQLEKSKEAVFQYMALLEKLQVEKDSIVWKEREINIKNELGDVSRKTSAVTDSRMASLDSEIQKQLDEKMRIKTRLGNISRERGRKEIFADMKALISSFPEEMSSMRSQLNNYKETAGGIHSLRADVQSLSGVLCRKTKEYEALQLRSADYASQLGDLNATVCDLKNSHEELKLFLDMYKRESTDARDIAEAKEQEYRAWAHVQSLKSSLDEQNLELRVKAANEAEAVSQQMLAAAEAEIADLRQKMDDCKRDVAKHSDILKSKHEEHGTYLSEIQTIGSAYEDIVPQNQRLLLQVTERDDYNIKLFLEGITSRQMQDTLLIDKYIMDKDIQQGSAYASFLSKKSSRIEDQLRFCTDQFQKLAEDKYQKSVSLENLQKKRADIGNGLEQARSRLEESHSKVEQSRLDYGALELELEIERFNRRRIEEEMEIAKKKVSRLRSLIEGSSAIQKLRQELSEFKEILKCKACNDRPKEVVITKCYHLFCNPCVQKLTGTRQKKCPTCSASFGPNDIKPIYI
notes: Full length HUB1; In the TAP experiments N-terminally fused to the TAP tag or the GS-TAP tag; in yeast two-hybrid fused to AD (pDEST22) or BD (pDEST32); all these constructs are written under this one entry; also called HUB1fl; full length HUB1

Columns and labels:
[1] = biological target: UBC2, At2g02760 (Arabidopsis thaliana) (UniProt P42745); experiment: GS-TAP purification + MALDI-TOF-TOF MS, bait UBC2 (third block); expectance is the MS identification score
[2] = biological target: HUB1 (Histone Monoubiquitination 1), At2g44950, Arabidopsis thaliana (Arabidopsis thaliana) (UniProt Q8RXD6); experiment: GS-TAP purification + MALDI-TOF-TOF MS, bait HUB1 (b′); expectance is the MS identification score
[3] = biological target: T1, HUB2, At1g55250, Arabidopsis thaliana (Arabidopsis thaliana, UniProt Q9C895 1-900); experiment: GS-TAP purification + MALDI-TOF-TOF MS, bait HUB2 (a); expectance is the MS identification score
T1 construct: As prey the endogenous protein of Arabidopsis cell culture; as bait N-terminal GS-TAP fusion; in yeast two-hybrid an AD fusion; also called AAG51572.1
T1 sequence: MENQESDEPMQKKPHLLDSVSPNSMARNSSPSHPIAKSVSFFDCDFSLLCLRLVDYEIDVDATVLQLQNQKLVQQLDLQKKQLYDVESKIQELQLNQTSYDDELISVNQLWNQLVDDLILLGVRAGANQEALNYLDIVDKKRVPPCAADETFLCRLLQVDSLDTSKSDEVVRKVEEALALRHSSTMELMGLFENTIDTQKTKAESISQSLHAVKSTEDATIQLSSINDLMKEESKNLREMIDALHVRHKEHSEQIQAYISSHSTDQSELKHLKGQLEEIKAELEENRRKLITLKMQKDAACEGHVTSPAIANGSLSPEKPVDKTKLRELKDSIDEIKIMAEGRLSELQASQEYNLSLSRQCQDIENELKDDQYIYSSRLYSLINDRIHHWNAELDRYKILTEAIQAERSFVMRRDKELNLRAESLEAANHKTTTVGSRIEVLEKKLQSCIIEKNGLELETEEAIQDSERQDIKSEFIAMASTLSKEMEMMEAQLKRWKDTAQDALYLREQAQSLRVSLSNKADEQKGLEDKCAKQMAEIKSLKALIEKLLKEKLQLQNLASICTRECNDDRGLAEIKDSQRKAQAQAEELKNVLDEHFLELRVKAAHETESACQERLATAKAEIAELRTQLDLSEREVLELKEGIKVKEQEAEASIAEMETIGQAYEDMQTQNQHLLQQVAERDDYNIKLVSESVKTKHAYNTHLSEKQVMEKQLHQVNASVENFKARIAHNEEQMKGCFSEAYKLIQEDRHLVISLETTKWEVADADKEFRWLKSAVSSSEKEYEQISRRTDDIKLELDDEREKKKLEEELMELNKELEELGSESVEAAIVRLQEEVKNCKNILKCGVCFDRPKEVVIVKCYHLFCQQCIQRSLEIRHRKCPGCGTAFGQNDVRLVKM

[4] = biological target: HUB1 (Histone Monoubiquitination 1), At2g44950, Arabidopsis thaliana (Arabidopsis thaliana) (UniProt Q8RXD6); experiment: GS-TAP purification + MALDI-TOF-TOF MS, bait HUB1 (b); expectance is the MS identification score
[5] = biological target: Spen like protein, At1g27750 (Arabidopsis thaliana); experiment: GS-TAP purification + MALDI-TOF-TOF MS, bait SL (b); expectance is the MS identification score
[6] = biological target: HUB1 (Histone Monoubiquitination 1), At2g44950, Arabidopsis thaliana (Arabidopsis thaliana) (UniProt Q8RXD6); experiment: GS-TAP purification + MALDI-TOF-TOF MS, bait HUB1 (a′); expectance is the MS identification score
[7] = biological target: Spen like protein, At1g27750 (Arabidopsis thaliana); experiment: GS-TAP purification + MALDI-TOF-TOF MS, bait SL (a); expectance is the MS identification score
[8] = biological target: T1, HUB2, At1g55250, Arabidopsis thaliana; experiment: GS-TAP purification + MALDI-TOF-TOF MS, bait HUB2 (b); expectance is the MS identification score
[9] = biological target: SEUSS, At1g43850 (Arabidopsis thaliana) (UniProt Q8W234); experiment: GS-TAP purification + MALDI-TOF-TOF MS, bait SEUSS (a); expectance is the MS identification score
[10] = biological target: SEUSS, At1g43850 (Arabidopsis thaliana) (UniProt Q8W234); experiment: GS-TAP purification + MALDI-TOF-TOF MS, bait SEUSS (b); expectance is the MS identification score
[11] = biological target: T1, HUB2, At1g55250, Arabidopsis thaliana; experiment: yeast two-hybrid
[12] = biological target: B2; experiment: yeast two-hybrid
[13] = biological target: the molecule itself; experiment: TAP with N-terminally TAP-tagged HUB1 from Arabidopsis cell culture, mass spectrometry; column Confirmed
Experimental: Because the RING proteins have their functionally important domain at the C-terminus, an N-terminal fusion was prepared instead of the traditional C-terminal fusion by cloning both full length and the point mutant form of HUB1 (HUB1pm, HUB1fl). The Arabidopsis cell cultures were transformed with the two constructs and cultivated on 10 litre scale, harvested and purified by TAP (Van Leene et al., Mol. Cell. Proteomics 6, 1226-38, 2007). The protein extracts were separated on 1-D SDS-PAGE gels and isolated from gel for protein identification by mass spectrometry (Laukens et al., Proteomics. 4, 720-7, 2004, Van Leene et al., 2007). Two cut offs were used resulting in “confirmed” and “to be confirmed” candidate interactor lists (Table I).
In the data set of confirmed interactors TAP HUB1 and HUB2 were present, […] the dimer formation between the homologues. In addition, the acetyltransferase GCN5, RNA binding proteins and a KH domain protein were identified as HUB1 interacting proteins. Most of these proteins are known to be localized in nucleus or nucleoli. GFP constructs of HUB1 have also been localized to nucleus (Liu et al., 2007). When HUB1pm was used for TAP purification no HUB2 could be identified as an interacting protein.

SEUSS, At1g43850 (Arabidopsis thaliana), sequence (Q8W234 whole entry): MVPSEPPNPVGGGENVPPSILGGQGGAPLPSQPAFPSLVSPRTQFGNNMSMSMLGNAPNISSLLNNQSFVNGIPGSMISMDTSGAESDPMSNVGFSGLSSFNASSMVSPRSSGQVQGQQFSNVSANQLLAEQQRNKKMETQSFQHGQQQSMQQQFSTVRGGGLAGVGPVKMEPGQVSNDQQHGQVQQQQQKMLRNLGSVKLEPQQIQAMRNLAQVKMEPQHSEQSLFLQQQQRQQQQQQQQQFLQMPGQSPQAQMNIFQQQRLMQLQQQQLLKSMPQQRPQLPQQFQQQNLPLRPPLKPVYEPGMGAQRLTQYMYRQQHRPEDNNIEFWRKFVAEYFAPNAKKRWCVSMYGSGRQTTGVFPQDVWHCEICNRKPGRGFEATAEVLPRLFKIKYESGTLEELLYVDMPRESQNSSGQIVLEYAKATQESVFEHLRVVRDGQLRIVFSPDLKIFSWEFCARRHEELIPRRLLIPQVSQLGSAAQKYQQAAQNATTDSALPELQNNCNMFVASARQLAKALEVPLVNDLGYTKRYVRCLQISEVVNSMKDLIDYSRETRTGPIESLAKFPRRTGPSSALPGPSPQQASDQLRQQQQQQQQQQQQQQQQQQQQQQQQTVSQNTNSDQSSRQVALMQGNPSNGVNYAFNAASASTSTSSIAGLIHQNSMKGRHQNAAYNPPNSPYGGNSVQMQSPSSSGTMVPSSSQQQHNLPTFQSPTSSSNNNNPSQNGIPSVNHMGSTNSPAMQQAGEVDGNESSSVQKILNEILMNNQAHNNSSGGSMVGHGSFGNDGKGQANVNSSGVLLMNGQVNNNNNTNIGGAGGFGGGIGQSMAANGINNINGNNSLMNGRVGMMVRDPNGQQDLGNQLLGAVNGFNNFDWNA

Expectance [1]: 0.00026
Molecule: AtUBA2, AT5G06460 (from UniProt P92974 1-1077) (enzyme)

Expectance [2]: 3.3e-09 | Expectance [3]: 1.3e-08 | Expectance [4]: 1.6e-08 | Expectance [5]: 2.6e-12 | Expectance [6]: 2.1e-09 | Expectance [7]: 0.00054 | Expectance [8]: 1.6e-09
Molecule: KH domain protein, At1g51580

Expectance [2]: 0.024 | Expectance [3]: 0.00097 | Expectance [6]: 6.5e-16 | Expectance [8]: 1e-24
Molecule: Spen like protein, At1g27750

Expectance [9]: 3.3e-99 | Expectance [10]: 2.1e-82
Molecule: LUH, At2G32700 (from UniProt O48847 1-787)

Expectance [1]: 0.00082
Molecule: AtUBA1, AT2G30110 (from UniProt P93028 1-1080) (enzyme)

binding result [11]: no binding | binding result [12]: no binding
B1: UBC3 (E2 conjugating enzyme, Arabidopsis thaliana) (enzyme, UniProt P42746 1-150, looked up)
chain: MTTPAKKRLMWDFKRLQKDPPVGISGAPQDNNIMHWNALIFGPEDTPWDGGTFKLTLHFTEDYPNKPPIVRFVSRMFHPNIYADGSICLDILQNQWSPIYDVAAVLTSIQSLLCDPNPDSPANAEAARLFSENKREYNRKVIEIVEQSYV
notes: Yeast two-hybrid fusion

Molecule: B2
monoubiquitination of histone H2B in the in vitro ubiquitination assay (protein gel blot) (histone H2B): shift of H2B by 10 kDa | binding result [13]: binds

binding result [11]: no binding | binding result [12]: no binding
B3: UBC1 (E2 conjugating enzyme, Arabidopsis thaliana) (enzyme, UniProt P25865 1-152, looked up)
chain: MSTPARKRLMRDFKRLQQDPPAGISGAPQDNNIMLWNAVIFGPDDTPWDGGTFKLSLQFSEDYPNKPPTVRFVSRMFHPNIYADGSICLDILQNQWSPIYDVAAILTSIQSLLCDPNPNSPANSEAARMYSESKREYNRRVRDVVEQSWTAD
notes: Yeast two-hybrid fusion

binding result [11]: no binding | binding result [12]: no binding
B4: UBC2, At2g02760 (enzyme, Arabidopsis thaliana, UniProt P42745 1-152, looked up)
chain: MSTPARKRLMRDFKRLQQDPPAGISGAPQDNNIMLWNAVIFGPDDTPWDGGTFKLSLQFSEDYPNKPPTVRFVSRMFHPNIYADGSICLDILQNQWSPIYDVAAILTSIQSLLCDPNPNSPANSEAARMFSESKREYNRRVREVVEQSWTAD
notes: As bait N-terminal GS-TAP fusion; fusion protein in yeast two-hybrid; also called E2 conjugating enzyme UBC2
